Test results published in US8173771B2, “Humanin receptor or humanin-like polypeptide receptor” (Keio Univeristy, priority 2005, dated 2012).

Assays:
CNTF receptor = biological target: T1, CNTF receptor (Homo sapiens, UniProt P26992); test: In vitro pull-down assay with HN- or HNA-conjugated Sepharose 4B; assay type: binding; conditions: lysates of F11 cells overexpressing CNTF-R
T1 construct: V5 (C); host or cells: F11 cells (lysate)
T1 sequence (P26992 23-342): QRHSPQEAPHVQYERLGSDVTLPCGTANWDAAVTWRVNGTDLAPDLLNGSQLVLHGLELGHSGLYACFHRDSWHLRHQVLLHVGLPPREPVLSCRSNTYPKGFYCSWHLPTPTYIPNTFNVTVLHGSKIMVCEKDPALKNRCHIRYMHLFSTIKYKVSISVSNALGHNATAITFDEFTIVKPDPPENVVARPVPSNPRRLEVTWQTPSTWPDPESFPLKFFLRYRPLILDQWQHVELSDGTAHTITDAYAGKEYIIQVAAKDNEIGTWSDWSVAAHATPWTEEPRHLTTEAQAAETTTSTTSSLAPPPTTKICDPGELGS
From the text: (§1) C) The photos show the results of in vitro pull down assay using HN- or HNA-conjugated Sepharose 4B bead. WSX-1, CNTF-R, and […] were over-expressed in F11 cells and the pull down assay was made using the above 4B bead. Immunoblot analysis was done using PO4 antibody against Humanin (lower panes). HN or HNA comprised in the above Sepharose 4B bead was compared with synthesized HN peptide (50 pmol) as a positive control.
(§2) F11 cells (7×10^4/well in 6-well plates) were transfected with the plasmids encoding mycHis-WSX-1, V5-CNTF-R or rat IL-6R (V6 tagged). At 48 hrs after transfection, the cells were harvested for pull-down assays with HN or HNA-conjugated Sepharose 4B. For conjugation of […] or HNA with Sepharose 4B, 3 ml of CNBr-activated Sepharose 4B was incubated with 0.5 mg of HN or HNA in a coupling buffer (0.1M NaHCO3 0.5M NaCl, pH8.3) overnight at 4° C. The beads were then reacted with a blocking buffer (0.2M glycine, pH 8.0) for 2 hrs at a room temperature, washed with the coupling buffer and stored at 4° C. for use in pull-down assay. For each pull-down assay, 20 μl of 1:1 slurry of Sepharose was used for 100 μl of the cell lysate.

WSX-1 = biological target: T2, WSX-1 (Homo sapiens, UniProt Q6UWB1); test: as above; assay type: binding; conditions: lysates of F11 cells overexpressing WSX-1
T2 construct: His; expressed in transfected cells; host or cells: F11 cells (lysate)
T2 sequence (Q6UWB1 33-636): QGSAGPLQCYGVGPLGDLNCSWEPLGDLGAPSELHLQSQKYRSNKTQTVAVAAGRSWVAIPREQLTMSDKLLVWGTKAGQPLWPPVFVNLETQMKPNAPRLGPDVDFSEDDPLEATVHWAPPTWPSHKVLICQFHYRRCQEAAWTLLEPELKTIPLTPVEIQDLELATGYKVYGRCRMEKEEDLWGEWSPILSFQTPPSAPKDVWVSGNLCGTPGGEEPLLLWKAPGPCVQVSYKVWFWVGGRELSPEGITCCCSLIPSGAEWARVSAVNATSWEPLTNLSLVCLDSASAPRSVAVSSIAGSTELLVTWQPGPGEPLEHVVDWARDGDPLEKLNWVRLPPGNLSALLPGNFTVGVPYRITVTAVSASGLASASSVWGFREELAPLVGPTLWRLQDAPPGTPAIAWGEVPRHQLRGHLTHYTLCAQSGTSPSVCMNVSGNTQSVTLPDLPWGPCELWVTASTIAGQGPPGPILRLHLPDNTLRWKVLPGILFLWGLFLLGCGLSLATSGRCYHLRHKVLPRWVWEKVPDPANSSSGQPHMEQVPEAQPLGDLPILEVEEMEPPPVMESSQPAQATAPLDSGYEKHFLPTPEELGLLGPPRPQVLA
From the text: as §1, §2

With “C8A-Humanin (MAPRGFSALLLLTSEIDLPVKRRA) [HNA]” the “binding in pull-down to CNTF receptor” value (CNTF receptor) was “did not bind” and the “binding in pull-down to WSX-1” value (WSX-1) was “did not bind”.
